This is an account of results in the supplement of paper PMC10567573.

B1: ATE1 (parent)
chain: YGSFHQQYWLDGKIIAVGVIDILP
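Also: lentivirally expressed fusions sorted by FACS into six bins by GFP to DsRed ratio, PSI derived from sequencing read proportions per bin multiplied by bin number.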

This data set covers variants of B1. The data set is described as follows: protein stability index of a GFP-peptide fusion (GPS, HEK-293T) (PSI 1-6); higher = more stable. Conditions: c terminus: a fixed tail appended.
Consider YGSFHQQYWLDGKMIAVGVIDILP [I14M], for which the protein stability index came out at 4.33. As for YGSFHQQYWLDGKNIAVGVIDILP [I14N], the figure is 4.29; as for YGSFHQQYWLDGKGIAVGVIDILP [I14G], 2.26. As for YGSFHQQYWLDGKCIAVGVIDILP [I14C], the figure is 2.81. As for YGSFHQQYWLDGKSIAVGVIDILP [I14S], the figure is 1.85; as for YGSFHQQYWLDGKTIAVGVIDILP [I14T], 2.75; as for YGSFHQQYWLDGKYIAVGVIDILP [I14Y], 1.49. For the variant YGSFHQQYWLDGKEIAVGVIDILP [I14E], the protein stability index came to 2.66.

For YGSFHQQYWLDGKKIAVGVIDILP [I14K], the protein stability index turned out to be 2.41.

As for YGSFHQQYWLDGKPIAVGVIDILP [I14P], the protein stability index was found to be 2.95. As for YGSFHQQYWLDGKQIAVGVIDILP [I14Q], the figure is 2.72; as for YGSFHQQYWLDGKWIAVGVIDILP [I14W], 2.62. As for YGSFHQQYWLDGKAIAVGVIDILP [I14A], the figure is 3.24.

For YGSFHQQYWLDGKIIAWGVIDILP [V17W], the protein stability index is 3. YGSFHQQYWLDGKIIAFGVIDILP [V17F]: the protein stability index came to 4.21. Regarding YGSFHQQYWLDGKIIAYGVIDILP [V17Y], the protein stability index was 2.91. For the variant YGSFHQQYWLDGKIIARGVIDILP [V17R], the protein stability index is 3.21. For the variant YGSFHQQYWLDGKIIAHGVIDILP [V17H], the protein stability index was 3.08. Consider YGSFHQQYWLDGKIIAPGVIDILP [V17P], for which the protein stability index turned out to be 1.66.

On to YGSFHQQYWLDGKIIAIGVIDILP [V17I], for which the protein stability index amounted to 1.95. The value for YGSFHQQYWLDGKIIALGVIDILP [V17L] was 2.42; that for YGSFHQQYWLDGKIIAMGVIDILP [V17M] was 3.42; that for YGSFHQQYWLDGKIIANGVIDILP [V17N] was 2.82. As for YGSFHQQYWLDGKIIADGVIDILP [V17D], the protein stability index amounted to 2.26. Take YGSFHQQYWLDGKIIATGVIDILP [V17T]: the protein stability index stood at 3.29. The value for YGSFHQQYWLDGKIIACGVIDILP [V17C] was 3.27; that for YGSFHQQYWLDGKIIAAGVIDILP [V17A] was 3.66. With YGSFHQQYWLDGKIIAVGVIDIAP [L23A], the protein stability index is 4.34. The value for YGSFHQQYWLDGKIIAVGVIDIGP [L23G] was 2.94; that for YGSFHQQYWLDGKIIAVGVIDIKP [L23K] was 2.49; that for YGSFHQQYWLDGKIIAVGVIDIEP [L23E] was 1.4. As for YGSFHQQYWLDGKIIAVGVIDIHP [L23H], the figure is 2; as for YGSFHQQYWLDGKIIAVGVIDIIP [L23I], 2.34. With YGSFHQQYWLDGKIIAVGVIDIDP [L23D], the protein stability index is 2.88. In the case of YGSFHQQYWLDGKIIAVGVIDIMP [L23M], the protein stability index was determined as 1.78. For the variant YGSFHQQYWLDGKIICVGVIDILP [A16C], the protein stability index was 1.6. As to YGSFHQQYWLDGKIITVGVIDILP [A16T], the protein stability index stood at 2.7. As for YGSFHQQYWLDGKIIYVGVIDILP [A16Y], the figure is 2.13. The value for YGSFHQQYWLDGKIISVGVIDILP [A16S] was 1.87; that for YGSFHQQYWLDGKIIMVGVIDILP [A16M] was 2; that for YGSFHQQYWLDGKIIVVGVIDILP [A16V] was 3.31. As for YGSFHQQYWLDGKIIGVGVIDILP [A16G], the protein stability index came to 2.13. The value for YGSFHQQYWLDGKIIQVGVIDILP [A16Q] was 3.07. As for YGSFHQQYWLDGKIIRVGVIDILP [A16R], the figure is 3.32; as for YGSFHQQYWLDGKIIPVGVIDILP [A16P], 2.38. The value for YGSFHQQYWLDGKIIFVGVIDILP [A16F] was 2.21; that for YGSFHQQYWLDGMIIAVGVIDILP [K13M] was 3.74; that for YGSFHQQYWLDGVIIAVGVIDILP [K13V] was 2.63.

As for YGSFHQQYWLDGAIIAVGVIDILP [K13A], the protein stability index came out at 2.3. On to YGSFHQQYWLDGLIIAVGVIDILP [K13L], for which the protein stability index turned out to be 3.1. The value for YGSFHQQYWLDGCIIAVGVIDILP [K13C] was 2.44; that for YGSFHQQYWLDGIIIAVGVIDILP [K13I] was 1.1; that for YGSFHQQYWLDGWIIAVGVIDILP [K13W] was 1.94.

In the case of YGSFHQQYWLDGPIIAVGVIDILP [K13P], the protein stability index stood at 2.99.

With YGSFHQQYWLDGFIIAVGVIDILP [K13F], the protein stability index stood at 2.76. In the case of YGSFHQQYWLDGDIIAVGVIDILP [K13D], the protein stability index amounted to 2.19.

For YGSFHQQYWLDGRIIAVGVIDILP [K13R], the protein stability index was found to be 2. The value for YGSFHQQYWLDGNIIAVGVIDILP [K13N] was 2.78; that for YGSFHQQYWLDGTIIAVGVIDILP [K13T] was 2.54.

For the variant YGSFHQQYWLDGEIIAVGVIDILP [K13E], the protein stability index was determined as 2.45. As for YGSFHQQYWWDGKIIAVGVIDILP [L10W], the figure is 2.66; as for YGSFHQQYWVDGKIIAVGVIDILP [L10V], 3.17; as for YGSFHQQYWHDGKIIAVGVIDILP [L10H], 2.42. The value for YGSFHQQYWYDGKIIAVGVIDILP [L10Y] was 1.97; that for YGSFHQQYWIDGKIIAVGVIDILP [L10I] was 3.3; that for YGSFHQQYWTDGKIIAVGVIDILP [L10T] was 1.74.

On to YGSFHQQYWKDGKIIAVGVIDILP [L10K], for which the protein stability index came to 3.17. The value for YGSFHQQYWEDGKIIAVGVIDILP [L10E] was 2.75; that for YGSFHQQYWRDGKIIAVGVIDILP [L10R] was 2.32.

On to YGSFHQQYWPDGKIIAVGVIDILP [L10P], for which the protein stability index was determined as 3.12. As for YGSFHQQYWCDGKIIAVGVIDILP [L10C], the figure is 2.9; as for YGSFHQQYWNDGKIIAVGVIDILP [L10N], 3.14.

As to YGSFHQQYWSDGKIIAVGVIDILP [L10S], the protein stability index was 3.74.

Turning to YGSFHQQYWMDGKIIAVGVIDILP [L10M], the protein stability index was 2.16. The value for YGSFHQQYWQDGKIIAVGVIDILP [L10Q] was 3.96; that for YGSFHQQYWDDGKIIAVGVIDILP [L10D] was 2.64. The value for YGSFHQQYWLDGKIIAVGVIDTLP [I22T] was 1.74; that for YGSFHQQYWLDGKIIAVGVIDSLP [I22S] was 3.81; that for YGSFHQQYWLDGKIIAVGVIDYLP [I22Y] was 2.23.

Take YGSFHQQYWLDGKIIAVGVIDQLP [I22Q]: the protein stability index worked out at 2.42.

With YGSFHQQYWLDGKIIAVGVIDKLP [I22K], the protein stability index was determined as 1.43.

For the variant YGSFHQQYWLDGKIIAVGVIDVLP [I22V], the protein stability index is 2.14. Regarding YGSFHQQYWLDGKIIAVGVIDALP [I22A], the protein stability index came to 3.85. Turning to YGSFHQQYWLDGKIIAVGVIDMLP [I22M], the protein stability index was 3.15. As for YGSFHQQYWLDGKIIAVGVIDDLP [I22D], the figure is 2.81. As for YGSFHQQYWLDGKIIAVGVIDPLP [I22P], the figure is 3.32; as for YGSFHQQYWLDGKIIAVGVIDHLP [I22H], 2.9; as for YGSFHQQYWLDGKIIAVGVIDRLP [I22R], 2.18. With YGSFHQQYWLDGKIIAVGVIDWLP [I22W], the protein stability index was found to be 2.77. The value for YGSFHQQYWLDGKIIAVGVIDELP [I22E] was 3.75. As for YGSFHQQYWLDGKIIAVGVIDFLP [I22F], the figure is 2.93. On to YGSFHQQYWLGGKIIAVGVIDILP [D11G], for which the protein stability index was determined as 1.06.

In the case of YGSFHQQYWLNGKIIAVGVIDILP [D11N], the protein stability index worked out at 3.47. As to YGSFHQQYWLFGKIIAVGVIDILP [D11F], the protein stability index came out at 3.33.
